Reference: PMC7495412

Legend:
Assay in all cases: co-IP
[1] = molecular target: μ2-eGFP (rat AP2M1 with internal HA tag and eGFP) (rat) (UniProt P84092)
[2] = molecular target: σ2-eGFP (AP2S1 with C-terminal eGFP) (UniProt P62744)
[3] = molecular target: α-eGFP (hybrid mouse α-adaptin with eGFP inserted into the hinge region) (mouse) (UniProt P17427)

Chain of UniProt P62744 (P62744 whole entry): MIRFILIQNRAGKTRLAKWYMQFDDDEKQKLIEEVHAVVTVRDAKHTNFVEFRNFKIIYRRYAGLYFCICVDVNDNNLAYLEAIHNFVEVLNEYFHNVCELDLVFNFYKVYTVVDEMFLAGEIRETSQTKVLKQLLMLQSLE
Chain of UniProt P84092 (P84092 whole entry): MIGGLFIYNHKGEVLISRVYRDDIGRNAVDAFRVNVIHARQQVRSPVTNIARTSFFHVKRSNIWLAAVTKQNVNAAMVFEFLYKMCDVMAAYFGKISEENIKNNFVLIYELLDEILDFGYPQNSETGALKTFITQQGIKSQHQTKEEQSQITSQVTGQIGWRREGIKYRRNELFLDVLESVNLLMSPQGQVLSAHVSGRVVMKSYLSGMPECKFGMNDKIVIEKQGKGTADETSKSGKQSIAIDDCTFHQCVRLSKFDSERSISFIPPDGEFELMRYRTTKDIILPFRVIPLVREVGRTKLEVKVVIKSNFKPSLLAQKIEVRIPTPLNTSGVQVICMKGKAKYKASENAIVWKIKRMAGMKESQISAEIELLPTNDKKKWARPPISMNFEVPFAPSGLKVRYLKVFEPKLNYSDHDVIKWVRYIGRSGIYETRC

## endogenous α subunit of AP2 (α-adaptin) (from UniProt O94973 1-939) (natural protein)
[1]
  percent of the endogenous subunit pulled down: 94.1%
[2]
  percent of the endogenous subunit pulled down: 98.7%

## endogenous μ2 subunit of AP2 (from UniProt Q96CW1 1-435) (natural protein)
[3]
  percent of the endogenous subunit pulled down: 99.3%
[2]
  percent of the endogenous subunit pulled down: 79.5%

## endogenous σ2 subunit of AP2 (from UniProt P53680 1-142) (natural protein)
[1]
  percent of the endogenous subunit pulled down: 68%
[3]
  percent of the endogenous subunit pulled down: 78.8%
